According to US20230083243A1 (VEGA THERAPEUTICS, published 2023):

T1: human Protein S (human, UniProt P07225 42-676)
T1 construct: also called ProS; ProS1
T1 sequence: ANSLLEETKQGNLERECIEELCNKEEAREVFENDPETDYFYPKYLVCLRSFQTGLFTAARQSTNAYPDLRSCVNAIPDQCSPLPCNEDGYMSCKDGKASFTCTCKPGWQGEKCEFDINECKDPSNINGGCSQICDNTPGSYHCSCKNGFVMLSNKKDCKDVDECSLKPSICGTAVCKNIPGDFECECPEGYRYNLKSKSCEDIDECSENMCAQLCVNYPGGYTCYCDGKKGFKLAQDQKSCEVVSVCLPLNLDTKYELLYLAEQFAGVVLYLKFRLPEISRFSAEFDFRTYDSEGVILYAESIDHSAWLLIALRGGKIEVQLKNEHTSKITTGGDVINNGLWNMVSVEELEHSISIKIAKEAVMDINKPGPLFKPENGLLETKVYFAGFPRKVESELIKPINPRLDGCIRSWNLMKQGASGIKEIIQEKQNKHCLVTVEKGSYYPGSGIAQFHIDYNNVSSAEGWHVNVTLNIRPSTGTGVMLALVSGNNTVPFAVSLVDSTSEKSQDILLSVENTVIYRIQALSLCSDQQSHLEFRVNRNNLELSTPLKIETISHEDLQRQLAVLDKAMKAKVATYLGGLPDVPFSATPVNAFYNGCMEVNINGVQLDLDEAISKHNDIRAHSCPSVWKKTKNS

T2: recombinant heavy chain Protein S (human, UniProt P07225 42-296)
T2 construct: Fragment of Protein S spanning amino acids 42-296, expressed and purified from HEK293 cells; also called Protein S heavy chain; heavy chain of Protein S
T2 sequence: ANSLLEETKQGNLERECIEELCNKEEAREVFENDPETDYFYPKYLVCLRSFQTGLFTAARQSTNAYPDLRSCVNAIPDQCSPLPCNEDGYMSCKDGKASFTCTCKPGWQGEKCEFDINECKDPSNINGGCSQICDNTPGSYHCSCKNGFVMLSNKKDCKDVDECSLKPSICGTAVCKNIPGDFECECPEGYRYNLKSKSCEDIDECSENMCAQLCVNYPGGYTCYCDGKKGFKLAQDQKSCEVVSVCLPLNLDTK


Columns and labels:
human Protein S [1] = target: T1, human Protein S; test: ELISA; plate coated with human Protein S; 1 µg/ml antibody; 1 mM calcium chloride
Experimental: (§1) Calcium dependence of binding was determined using an ELISA based method. Briefly, high binding ELISA plates were coated with human Protein S. Then, buffer containing 1 μg/ml of antibody was applied to the well with either buffer containing 1 mM EDTA or 1 mM calcium chloride.

human Protein S [2] = target: T1, human Protein S; test: cell-based or functional assay
human Protein S [3] = target: T1, human Protein S; test: ELISA; plate coated with human Protein S; 1 µg/ml antibody; 1 mM EDTA
Experimental: as §1

[4] = target: T2, recombinant heavy chain Protein S; test: ELISA; plate coated with recombinant Protein S heavy chain; 1 mM CaCl2
Experimental: (§2) Binding to the heavy chain of Protein S was determined using an ELISA based method. Briefly, high binding ELISA plates were coated with recombinant heavy chain Protein S expressed and purified from HEK293 cells. The “heavy chain” of Protein S represents a fragment of Protein S spanning amino acids 42-296. The coated plate was blocked with 1% casein solution. Then, buffer containing […] of antibody was applied to the well with buffer containing 1 mM calcium chloride.

[5] = target: T2, recombinant heavy chain Protein S; test: ELISA on recombinant Protein S heavy chain
Experimental: as §2

Binder	Binding to Protein S in CaCl2 (OD) (human Protein S [1])	IC50 APC (human Protein S [2]) [nM]	Binding to Protein S in EDTA (OD) (human Protein S [3])	Binding to heavy chain (OD) [4] [OD]	IC50 TFPI (human Protein S [2]) [nM]	binding result [5]
Antibody 18 (antibody, V domains shown, Human variable region with rat Fc) VH: QVQLQESGPGLVKPSETLSLTCTVSGGSISNYYWNWIRQPPGKGLEWIGYIYYIGITDYNPSLKSRVTISVDTSKNQFSLKVTSVTAADTAVYYCAALSGDHAFDIWGQGTLVTVSS VL: not shown	1.96	12.8	0.1	0.6		
Antibody 13 (antibody, V domains shown, Human variable region with rat Fc) VH: QVQLVQSGAEVKKPGSSVKVSCKVSGGTFSSYSISWVRQAPGQGLEWMGGIIPIFGTTNYAQKFQGRVTITADESTSTAYMDLSSLKSEDTAMYYCEGGRVGADFDYWGQGTLVTVSS VL: SSDLTQGPAVSVALGQTVRITCQGDSLRNYYASWYQQKPGQAPVPVIYGKNDRPSGIPDRFSGSISGNTASLTITGAQAEDEAHYYCNSRDSSGNHVVFGGGTKLTVL	1.77	5.3	0.48	1.63	51.1	
Antibody 23 (antibody, V domains shown, Human variable region with rat Fc) VH: QVQLVQSGAEVKKPGASVKVSCKSSGHTFTGYYMHWVRQAPGQGLEWMGWINPNSGDTNYAQKFQGRVTMTRDTSISTAYMEMSRLRSDDTAVYYCARDSQILWFGELGYWGQGTLVTVSS VL: QAVVTQESALTTSPGETVTLTCRSSTGAVTASNYANWVQEKPDHLFTGLIGSTNNRAPGVPARFSGSLIGDKAALTITGAQTEDEAIYFCALWYSDHFVFGGGTKLTVL	0.57		0.26	0.1	< 4.4	no binding
Antibody 19 (antibody, V domains shown) VH: QLQLQESGPGLVKPSETLSLTCTVSGGSISSSSYYWGWIRQPPGKGLEWIGNIYYSGNTYYNPSLKSRVTISVDTSKNQFSLKLSSMTAADTAVYYCARCSGYGYSSGRSYFDYWGQETLVTVSS VL: not shown	1.68	81.2	0.06	0.61	105	
Antibody 14 (antibody, V domains shown, Human variable region with rat Fc) VH: QVQLQESGPGLVKPSQTLSLTCTVSGGSITSDGYHWSWIRQYPGKGLDWIGYIYYTGNTYYNPSLKSRVTISVGTSQNQFSLKLISVTAADTAVYYCARRLSTGPYFDYWGQGTLVTVSS VL: QSALTQPASVSGSPGQSITISCTGTSSDVGGYEFVSWYQHHPGKAPKLMIYDVSSRPSGVSNRFSGSKSGNTASLTISGLQAEDEADYYCSSYTRSSTVVFGGGARLTVL	2.03	8.76	0.75	2.03	73.3	
Antibody 15 (antibody, V domains shown, Human variable region with rat Fc) VH: EVQLVESGGGLVQPGRSLRLSCAASGFTFDDYAMHWVRQAPGKGLEWVSGITWNSGNIGYADSVKGRFTISRDNAKNSLYLHMNSLRIEDTAFYYCAKGRAVSDTFDIWGQGTMVTVSS VL: SYELNQPPSVSVSPGQTASITCSGDKLGDKYASWYQQKPGQSPVVAIYQNSKRPSGIPERFSASNSGNTATLTISGTQALDEADYYCQAWDSSTWVFGGGTKLTVL	1.86	13.5	0.07	1.78	77.3	
Antibody 21 (antibody, V domains shown, Human variable region with rat Fc) VH: QVQLVQSGAEVKKPGSSVKVSCKASGDTFSNHAINWVRQAPGQGLEWMGGYIPIFGTTNSAQKFRGRVTITADKSTNTAYMALSSLRSEDTAVYYCARGGLAGSHYKNYYYDGMDVWGQGTTVTVSS VL: not shown	1.92	6.23	1.4	1.58		
Antibody 20 (antibody, V domains shown, Human variable region with rat Fc) VH: QVQLQESGPGLVKPSETLSLTCAVSGYSISSGYYWGWIRQPPGKGLDWIGSIYYSGSTYYNPSLKSRVTISVDTSKNQISLKLSSVTAADTAVYYCATTYSDIVTGYYNDAFDIWGQGTMVTVSS VL: EIVMTQSPATLSVSPGERATLSCRASQRINSNLAWYQQKPGQAPRLLIYGASTRATGIPARFSGSGSGTEFTLTISSLQSEDFAAYYCQQYDNWPLTFGGGTKVEIK	1.93	12.8	0.26	1.54		
Antibody 16 (antibody, V domains shown, Human variable region with rat Fc) VH: QVQLVESGGGVVQPGRSLRLSCAASGFTFSTYGFHWVRQPPGKGLEWVAVIYYDGINKYYADSVKGRFTISRDNSKNTLFLQMNSLRAEDTAVYYCAESDLDYWGQGTLVTVSS VL: EIVLTQSPATLSLSPGERATLSCRASQSVSIYLAWYQQKPGQAPRLLIYDASNRATGIPARFSGSGSGTDFTLTISSLEPEDFAVYYCQQRSNWPLTFGPGTKVDIK	1.95	14	0.17	1.67	46.3	

More lines, now with the values ahead:

Binding to Protein S in CaCl2 (OD) (human Protein S [1])	IC50 APC (human Protein S [2]) [nM]	Binding to Protein S in EDTA (OD) (human Protein S [3])	Binding to heavy chain (OD) [4] [OD]	IC50 TFPI (human Protein S [2]) [nM]	binding result [5]	Binder
1.17	492	0.89	0.48			Antibody 44 (antibody, V domains shown, Human variable region with rat Fc) VH: QVQLVQSGAEVKKPGASVKVSCKASGYTFTSYYIHWVRQAPGQGLEWMGVTSPSGRSTSFAQKFQGRVTMTRDTSTSAVYMDLDSLRSEDTAVYYCARGGVTIHLERRGYFDYWGQGTLVIVSS VL: not shown
1.03	99	0.63	0.13		no binding	Antibody 31 (antibody, V domains shown, Human variable region with rat Fc) VH: QVQLQESGPGLVKPSETLSLTCTVSGGSISGNYWSWIRQPPGKGLEWIGYIYYSGSTNYNPSLKSRVTISVDTSKNQFSLKLSSVTAADTAVYYCARDLDYFTWGAYSDWYFDLWGRGTLVTVSS VL: DIQMTQSPSSLSASVGDRVTITCRASQSISTFLNWYQQKPGKAPKLLIYATSSLRSGVPSRFSGSGSGTDFTLTISSLQPEDFAIYYCQQSYSTPRTFGQGTQVEIK
1.23	58.1	0.2	0.11	34	no binding	Antibody 33 (antibody, V domains shown, Human variable region with rat Fc) VH: QVQLQQSGPGLVKPSQTLSLTCAISGDSVSNNNAAWNWIRQSPSRGLEWLGGTYYRSKWYNDYAVSVKSRIIINPVTSKNQFSLQLNSVTPEDTAVYYCARGSSWYRFFDYWGQGTLVTVSS VL: EIVLTQSPGTLSLSPGERATLSCRASQSVGSSYLAWYQQKPGQAPRLLISGASGRATGIPDRFSGSGSGTDFTLTISRLEPEDFTVYYCQQYGSSPYTFGQGTKLEIK
1.72	17.9	0.06	0.71	73.6		Antibody 24 (antibody, V domains shown, Human variable region with rat Fc) VH: QVQLQESGPGLVKPSETLSLTCGVSGGSISSTNWWSWVRQPPGKGLEWIGEIYQTGSTDYDPSLKSRVTISIDKSKNQFSLKLYSVTAADTAVYYCARRFGELDYWGQGTLVTVSS VL: EIVMTQSPATLSVSPGERATLSCRASQSVTSNLAWYQQKPGQAPRLLIYDASTRATGIPARFSGSGSGTEFTLTISSLQSEDFAIYYCQQYNNWPTFGQGTRLEIK
